Experimental findings from the DeepSol protein solubility set are described below.

The series in a line: soluble on expression in E. coli; label from the status in PepcDB or PDB records.
In the case of “MSASDGDNTEQTGRRRSFGNLFGSTRVPFSSLSDIYANQSTFAKDQGVQSEVDVADAWSQHHAPTRDQYVQSEIITAVETSSQYEVQTKDKEVEAICSTANRTTQTCHATNIAGTNSESCLIEKLANSLLEHLQARRPIKARTAFPIYLQQPEQLQLLPPPDQQSAPVPPSHPLQNSEARQEDLEQTEMPQASQQIGINETSLNDADSQSFFHSRLHQTEQREETNSNSMQSIHSQVNPPASQETMESHFPEMINSRKSDHQLCFSFKKVTSERCSSFPTRHDGSSHFARSSSGLLGSMSSQQQRSQFPVPQEEGNQAEDMRGAQQPHNARNLFGGVGGMFPSMPNSSGGQGPDWQNNHFIRPFGQPAAGMMSWHPGMMPSHMNNSAAPSSFFESPFMPPYDVFMQQQMLLHSQYAAWEQQRNHAMMYQNAQNQNSANVNPSFADIPSAAPISQPEVNVNENQIVPEETERLEADLEIENTVDAIIVTDVGSVNQAVSGVNSIARETEEINNQDVRNETPVEDFGSIISAISITENRNESPMPSASETDDTSPHTSRSRYGSSVAISTGMKRARLEPSQSPPGSSRKNSRNETTKKNSKTPSSTIDKEPTSSKRTRKAPARYEAEWNAEQGGDTRRAKRWSKDFYKAPSKK”, the “soluble on expression in E. coli” value is given as “not soluble”. To “MAHHHHHHMSLVASQEGLTDLVPCNDQCGGDYTLYTFGQSEKEVTITAPLAPGTRGKSLRVDIKVRHLQIEVPGKGTILAGELYKPINVDDSTWCIQDGKELVVVLTKTNIEYEEWWPHVVIGERQIDLKTLKPPSIRFSDLDGGAQATVAKMMHEQHEKRTDPAFTNA” belongs “soluble”. To “MSYYHHHHHHDYDIPTENLYFQGAMGRADPRNQRVLLDEYSRQRGQITAGGQLLAYSVATDGRFRFLRVYPNPEVYAPVTGFYSLRYSSTALERAEDPILNGSDRRLFGRRLADFFTGRDPRGGNVDTTINPRIQQAGWDAMQQGCYGPCKGAVVALEPSTGKILALVSSPSYDPNLLASHNPEVQAQAWQRLGDNPASPLTNRAISETYPPGSTFKVITTAAALAAGATETEQLTAAPTIPLPGSTAQLENYGGAPCGDEPTVSLREAFVKSCNTAFVQLGIRTGADALRSMARAFGLDSPPRPTPLQVAESTVGPIPDSAALGMTSIGQKDVALTPLANAEIAATIANGGITMRPYLVGSLKGPDLANISTTVGYQQRRAVSPQVAAKLTELMVGAEKVAQQKGAIPGVQIASKTGTAEHGTDPRHTPPHAWYIAFAPAQAPKVAVAVLVENGADRLSATGGALAAPIGRAVIEAALQGEP” belongs “soluble”; to “MSDSPIGSSQQVEPEHRTPDLMDIDPLIANLKALHEETRSDDDDDGQPSTSAKRKDSRADGIVIHQKKYSDPGRFLWIWLLGVRVPALSIDGEPHLPIEILDDMLTKKDKKDQMSFQNLLRYKNVYIRMASPSQFRAVMEKSKECENLNITSLSLMSRSDIERIMGELRLESMLTLAEHDNWDISDRVHVVHVNFIDYCSEWLESDDLEEDVMQSGTHGYWYKNRRNMRCIECQHCEGKFTPTDFIMHHHYPIKPSGFVHTGCNSFQWIRLIEVFDKSNENLEAWNKFVLNSHRAGKREYDEAAPHQAPPKRPAMETPVPVAADNGWEADEEEEGEEIVDRDADIEKCKLRNKKKMENLHIADFLGPSGSKGLKPRNKFEAVIIEQLNKMDDAALEALFLKSPEEYNLWVKESDFTHKVVTQQQEWKAKMKDPNFKSRASANFDVSKGEFDNMRHFDNASKATRQEIQQLAEQFANLDRDAKLLTPMEFVLREHALLKNVSADAIRVLCNRPPLPPLPPPPPPPKPKPAPVQPISLGNINFVALAQQLIASGIKLPLPIVTPPVVSTPAPVITPIPAALPISPNSDFLKQQLSTAMSSPALLSLYPKLTAGAYEQLAQFIKTTTVKN”, “not soluble”; to “GPGSMAHEHGNEFAGPGGGNGGNGGNVMLQCVKQHTDLSHIEDLGSQISAGAGCCGFSREAHGKRGQDLWLQLPLGTQVVDMDTNEVQYDMDEEGMQIVLLEGGQGGKGNAAFANKWHHSPIESTKGLPGNTMLAQIELKTIADCGLIGYPNAGKSSLLSAISASKPTIAPYAFTTLRPYVGVLHDLYGNVCRVADIPGLIEGAYENRGLGHQFLRHVERTKCLALVVDMCNTYVPDTGLRNSSEVLQPWDVVELLLQELEYYLPGMSQRVIMTFANKMDIEKDSTGTATQVKLSELKRRVSMPVFPISAALGIHLGPQHEQTGLAPALQFMCGEVFARQSQEREMRQFRFSHERAQLERAFRAKHNGVFLPQVHALGAHGAEASQDLDDEAADRGGSLVDQQLDFLGNSGLGVKFDAYENSAARGQLHRYRDLTMKGKYWNLTRQDGEVMKGEKWS”, “not soluble”. To “MGQCRSANAEDAQEFSDVERAIETLIKNFHQYSVEGGKETLTPSELRDLVTQQLPHLMPSNCGLEEKIANLGSCNDSKLEFRSFWELIGEAAKSVKLERPVRGH” belongs “soluble”.

With “MGSDKIHHHHHHMNLAGAQLTENELMRLTVSNIAQATSLPALIQEHGRWCCQRCGDRKPVQLPDGRFYCSACVSLGCLTNRDLLYRFEQPHRPVGDGLLTWHGTLTPAQQKASTALQTSVTAGADHLIWAVTGAGKTEMLFPTISQMVQQGKRVAIVSPRIDVIRELAPRLRTAFATTPIAVRYGGHFDQTDSDLVLATVHQLLRFHRAFDLIVVDEVDAFPMAGTPMLHRAVQGARRGPVVYLTATPDRPLKAAMRKGLMVSRLFRRFHGHPLPVPAIRLMNFKKLPSQLPPAIVKWVRDVVATGRSCLLFVPKISWAPQIAALVQRNGLRVAGVASTDRLRAEKITAFRQRQIQVLVTTTILERGVTVSKCAVGVVAAADRAFTASALVQIAGRAGRAADSADDPVVFFTDRYTLALLAAKRQIVMMNGR”, the “soluble on expression in E. coli” value is on record as “not soluble”. With “MAELISKEGNKVEFKVSVPAAEVNRAYDQVWAGLARDVRVPGFRPGKAPRKVIENRVGKGYVESQVRDRLLETHYSQGLRELGLNLVDATVDPQDVQSGQAFEFTVKGETYP”, the “soluble on expression in E. coli” value is “soluble”. In the case of “MSRGVKRVTAITNREREAVLRIEFPNVDVTDIDFDLFQARESTDKPLDVAAAIAYRLLLGSGLPQKFGCSDEVLLNFILQCRKKYRNVPYHNFYHVVDVCQTIYTFLYRGNVYEKLTELECFVLLITALVHDLDHMGLNNSFYLKTESPLGILSSASGNKSVLEVHHCNLAVEILSDPESDVFGGLEGAERTLAFRSMIDCVLATDMARHSEFLEKYLEIMKTSYNVDDSDHRQMTMDVLMKAGDISNVTKPFDVSRQWAMAVTEEFYRQGDMEKERGVEVLPMFDRSKNMELAKGQIGFIDFVAAPFFQKIVDACLQGMQWTVDRTKSNRAQWERVLEARSTGAS”, the “soluble on expression in E. coli” value was “soluble”. As for “MGSDKIHHHHHHMRTLTISDEIVPAVYSLNIKQRFADVQLVLACGDLPIYYLEFVVTMLGQPCFYVWGNHDAPEVQADGQVVSYARGATCIEDHVVCHQGLLIGGLGGSIRYKPDGHHQYTETQMMLRVLRMAPRLFLNRLRYGRYLDVLLTHAPPLGIHNGPDYPHRGFLALLRFIQWFRPRYLIHGHIHLSYGFGHATETLYGQTLVINTAGYRVLDLAI”, the “soluble on expression in E. coli” value is “not soluble”. Take “MSLALLNVDKLSVHFGDESAPFRAVDRISYSVKQGEVVGIVGESGSGKSVSSLAIMGLIDYPGRVMAEKLEFNGQDLQRISEKERRNLVGAEVAMIFQDPMTSLNPCYTVGFQIMEAIKVHQGGNKSTRRQRAIDLLNQVGIPDPASRLDVYPHQLSGGMSQRVMIAMAIACRPKLLIADEPTTALDVTIQAQIIELLLELQQKENMALVLITHDLALVAEAAHKIIVMYAGQVVETGDAHAIFHAPRHPYTQALLRALPEFAQDKERLASLPGVVPGKYDRPNGCLLNPRCPYATDRCRAEEPALNMLADGRQSKCHYPLDDAGRPTEGHHHHHH”: the “soluble on expression in E. coli” value is listed as “soluble”. For the sequence “MAHHHHHHMLRRTQRWLLLNVSGESPSFRSKPVRNLQMDVQMSPYKEQFKDYWSTPVPWADREYGEKPKLGAPIPTRRAATAIVVGKNKHVAVDKVERGEDNDYKVLMMFREGKNRFVRDQFIFPSFPISLEDSSEDWEKILRRRGVKTAWNDLHHRLCAMRALFAQMNILLVPKEGGGLVEVEGPPGPKKWHLLVHSQPKAMKNLVDVLELPMETCLSQLLPFRCITTPTTETFRFDNLVYLVPFEKIPDVRFTISTVGEKLVWVSPMEAMARFNAGIMNMPTPNIIAISELNNECPIFADVTKRKPHDDYRSILPELYRHSQTKVATVLLPGDLMHPNTTEEDKAERYIRRFVYEKDYPFGIRAVFEERPATTEEMNEPLIQEAPKLLEEANEMDMVYADTPYPKREKQPGEIGRTRFPVPSYSFQEGAENEEGVIPVRNRNIESVGDLYSQTN”, the “soluble on expression in E. coli” value is “not soluble”. Turning to “YTRRSIEKMVKTQVDSKVLDEKNKYYEQQLVTMKQTLESQRTVRHDLKNKLSPLIYLAESGKTDELVEQVQELGSLSVLGKIYADSGNITIDYIINLKLQALANKGVTIFCEINVPNDIDVVPFDLSTVLGNLIDNAAEALEYVQNEKWIGIKISYQVGFLMIQVANSFDGIVHLDNKKIISRKEDTENHGIGLTSIKKIAGKYDGEVVVQHDDKQFDVIVKLLA”, the “soluble on expression in E. coli” value is reported as “not soluble”. To “MSLVDRNIGGSVTAPRIRVIEIDAFERDIRLRLPFRFGAATLEKAPQAFLRVRVEDEEGRTGLGATAEMMVPKWFDKNPAFTPAQNVDQLRTSIHTAAAASLEPSELATLFAAARLNEMETVRRLPGNPLAACFGPSLIARAALDAYCRLAGISFFEAVRGNLVGIGGPMLPGDIDADAASAMLAGLRPAGAISARHTIGLVDPITEGDIVDPVGDGLPESLEAVITRYGNRWFKIKLSGTIDADIDRLTRIAAVLDRLPDYRVTVDGNEQFGAPEQLAALLGQIEARPRLARLRAAIAFVEQPFSRAITMETPLGDLAAQLPFLIDESDDGDGAFAAARRLGYTGVSSKTCKGIYRSLMKAIRIRTGTAPGLFLSGEDLTCQAGLAVQQDLALVSLLGLSHVERNGHHYVAGMQGAPQAEKLRFAAAHPDLYEQGGDGPLLSIRDGRIAIASLGAVGYASGALPDFEAMTPMSEGHHHHHH” belongs “soluble”; to “MYLRKILELYRDSRFKYVVVDTPPTGLTLRILSLPRLYTFWLESLIGIRERIVSLRYVIARSIGREPEMDDPVLDKLREMQDRYAKLSNDLVERERTSFAIVATPEPLPVYEARKTVEFLESMGAKPSIIVVNRILPAEIASRLGVLEVQSKALNELRTRVCRKPCVLVEIPMVETVPSSLEAVLNLVERSR”, “not soluble”; to “MGSDKIHHHHHHMGKSIRKIVNWKQYNQALVNRGSLTFWVDEAAVNTWYCHEHHGGRGRGFSYSDVAIETALMVKGIFNLSLRALEGFLNSLFTLMSVPLKSPDYTSISKRAKTVNIKYRNPSRGPIAHVVVDATGLKVFGEGEWKTRKHGSEKRRTWRKLHLAIDASTHEVVAAEVSLVSVGDNEVLPTLLNPLRRKITQVSADGAYDTKGCYQLLRRKGCKATIPPRSNAGLWEKRHPRNEAVEALKAGQLKHWKIDNGYHQRSLAETAMGRYKQLNSPMLSLRDYNGQVAEALAGVKAMNKVIRLGMPVRQQVA”, “not soluble”.

With “MYKFVLIASLLVALCMAAPPRQESEAERIEREEYEKYQNENAQYSFNSSVDDKINDGQISRNEEREGGTVRGSYSYFDGFVKRRVEYIADKDGYRVLKDEIEDVGNGPSFNPDGIANVEGSMIGKYSIKLDKADDDKHYKDIHALEHHHHHH”, the “soluble on expression in E. coli” value was “not soluble”.

Regarding “DVSGTVCLSALPPEATDTLNLIASDGPFPYSQDGVTFQNRESVLPTQSYGYYHEYTVITPGARTRGTRRIITGEATQEDYYTGDHYATFSLIDQTC”, the “soluble on expression in E. coli” value is on record as “soluble”. Take “MAKGGKSPKGKKITLNVAKNCIKITFDGRKRLDLSKMGITTFPKCILRLNEIDELDLSRNMIRKIPDSISKFQNLRWLDLHSNYIDKLPESIGQMTSLLFLNVSNNRLTTNGLPVELNQLKNIRTVNLGLNHLDSVPTTLGALKELHEVGLHDNLLTSIPAGISKLPKLKKLNVKRNPFPKPDESDMFVDSIKRLENLYLVEEKDLCSSCLQKCQQARDKLNKIRSMAPSAPRKAIFSNLVSPNSTAKESQEEWSV”: the “soluble on expression in E. coli” value is “not soluble”.
